The text below walks through data of PMC4191393, “Selective microRNA uridylation by Zcchc6 (TUT7) and Zcchc11 (TUT4)”.

For the data set, the target named is T1, r.Zcchc11 (TUT4) (Homo sapiens, UniProt Q5TAX3 225-1384).
T1 sequence: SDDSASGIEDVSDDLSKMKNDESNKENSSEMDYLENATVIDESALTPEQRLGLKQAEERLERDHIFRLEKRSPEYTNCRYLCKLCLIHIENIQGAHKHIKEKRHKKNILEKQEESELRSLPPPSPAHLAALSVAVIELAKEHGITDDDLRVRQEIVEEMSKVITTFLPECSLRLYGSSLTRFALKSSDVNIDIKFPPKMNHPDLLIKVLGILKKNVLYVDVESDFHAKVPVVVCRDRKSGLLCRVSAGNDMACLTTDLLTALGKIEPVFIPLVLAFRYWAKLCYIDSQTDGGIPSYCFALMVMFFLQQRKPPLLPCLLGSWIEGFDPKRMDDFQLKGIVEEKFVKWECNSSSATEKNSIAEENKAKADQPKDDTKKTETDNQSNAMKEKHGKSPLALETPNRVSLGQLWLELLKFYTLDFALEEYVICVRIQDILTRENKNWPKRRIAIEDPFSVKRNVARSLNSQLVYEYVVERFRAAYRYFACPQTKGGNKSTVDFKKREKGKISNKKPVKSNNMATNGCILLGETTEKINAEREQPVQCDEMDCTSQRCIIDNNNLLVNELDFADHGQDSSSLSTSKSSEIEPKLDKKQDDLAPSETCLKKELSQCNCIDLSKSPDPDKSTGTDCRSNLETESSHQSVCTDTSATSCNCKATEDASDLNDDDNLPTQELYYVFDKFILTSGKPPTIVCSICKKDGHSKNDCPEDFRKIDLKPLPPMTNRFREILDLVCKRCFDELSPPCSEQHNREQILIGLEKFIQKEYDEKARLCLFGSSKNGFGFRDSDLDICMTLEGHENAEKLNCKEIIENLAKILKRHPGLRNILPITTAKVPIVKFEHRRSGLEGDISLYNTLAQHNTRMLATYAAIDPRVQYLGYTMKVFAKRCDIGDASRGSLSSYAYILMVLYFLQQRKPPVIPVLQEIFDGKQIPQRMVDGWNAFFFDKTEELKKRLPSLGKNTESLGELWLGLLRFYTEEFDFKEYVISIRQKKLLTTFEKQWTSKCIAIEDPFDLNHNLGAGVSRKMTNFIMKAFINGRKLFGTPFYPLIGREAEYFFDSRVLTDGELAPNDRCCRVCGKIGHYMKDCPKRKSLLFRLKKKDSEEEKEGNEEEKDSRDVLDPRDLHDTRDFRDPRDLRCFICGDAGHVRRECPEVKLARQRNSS
As to the kind of experiment: EMSA; 2 mM Mg2+; RNA 2.5 nM; EMSA: 500 mM NaCl, 20 mM HEPES pH 7.5, 2 mM MgCl2, 5% glycerol, 1 mM TCEP; 10 ul, 3-50 ng protein, 2.5 nM RNA; native 12% PAGE in 0.5x TBE; temperature not stated. The note with it: protein: recombinant; tags: N-terminal His6-Trx, removed with TEV; label: 5'-32P; single strand. For orientation: Mobility shift assays separate free from complexed probe on a gel.

B1: let-7g guide (ssRNA)
RNA: UGAGGUAGUAGUUUGUACAGUU
With B1, the binding result is “binds”.
